Measurements from patent publication US20200181248A1 (Chugai, published 2020).

Molecular target: T1, soluble form of human GPC3 (lacking the C-terminal hydrophobic region 564-580, Flag-tagged, heparan sulfate … (human, UniProt P51654 25-563, heparan sulfate modification (smear-like band of 50 to 300 kDa)))
T1 construct: also called soluble form of GPC3; purified soluble form of GPC3; not shown: Flag tag from vector pCXND2-Flag
Assay: sandwich ELISA: the concentration varied is that of soluble GPC3 ('GPC3 hepa'); M6B1 coated as capture, biotin-labeled M18D4 as detection

T1 sequence (P51654 25-563, form in doubt): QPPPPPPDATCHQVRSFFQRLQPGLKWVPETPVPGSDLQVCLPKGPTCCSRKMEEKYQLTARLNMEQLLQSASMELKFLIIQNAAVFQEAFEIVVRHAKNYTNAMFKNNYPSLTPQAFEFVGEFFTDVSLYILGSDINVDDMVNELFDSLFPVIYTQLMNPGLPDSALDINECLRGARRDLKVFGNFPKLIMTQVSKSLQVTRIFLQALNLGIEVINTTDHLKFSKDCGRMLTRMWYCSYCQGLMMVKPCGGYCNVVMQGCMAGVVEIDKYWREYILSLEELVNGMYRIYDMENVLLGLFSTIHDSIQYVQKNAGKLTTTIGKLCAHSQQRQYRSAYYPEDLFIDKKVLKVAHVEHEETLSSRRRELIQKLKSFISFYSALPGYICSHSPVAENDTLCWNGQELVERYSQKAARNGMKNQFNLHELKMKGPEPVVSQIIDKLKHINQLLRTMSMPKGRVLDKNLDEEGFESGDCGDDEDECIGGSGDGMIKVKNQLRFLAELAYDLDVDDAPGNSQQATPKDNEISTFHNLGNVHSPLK

EC50 (read off the curve): ~0.02 µg/mL
B1: M6B1 (antibody, V domains shown)
VH: EVQLVESGGDLVKPGGSLKLSCAASGFTFSSYAMSWVRQTPEKRLEWVAAINSNGGTTYYPDTMKDRFTISRDNAKNTLYLQMSSLRSEDSALYYCTRHNGGYENYGWFAYWGQGTLVTVSA
VL: DIQMTQSPSSLSASLGGKVTITCKASQDINKNIIWYQHKPGKGPRLLIWYTSTLQPGIPSRFSGSGSGRDYSFSISNLEPEDIATYYCLQYDNLPRTFGGGTKLEIK
